Positions count from the first letter of the chain named.
T1: midkine (AP-MK) (Homo sapiens, UniProt P21741 P21741:23-143)
T1 chain: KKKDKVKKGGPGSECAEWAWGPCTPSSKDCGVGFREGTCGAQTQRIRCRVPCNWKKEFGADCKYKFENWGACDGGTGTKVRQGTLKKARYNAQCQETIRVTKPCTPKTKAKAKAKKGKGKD

T2: midkine (MK) (Homo sapiens, UniProt P21741 P21741:21-143)
T2 sequence: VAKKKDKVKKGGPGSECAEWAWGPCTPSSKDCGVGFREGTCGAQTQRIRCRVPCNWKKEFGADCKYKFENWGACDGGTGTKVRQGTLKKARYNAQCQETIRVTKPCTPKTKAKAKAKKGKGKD

B1: SEQ ID NO: 9-2 (mixed)
RNA: GCCAUCGCAAUGGUGAGUGGUUUAUCCGCCUGCGCAUGGCAAAAAAAAAAAAAAAA
modifications: 2'-OMe at C2,C3,C40 and RNA purines except A16,G17,A24 (2'-OH); 2'-F at all other pyrimidines; 3' 16-nt poly dA (DNA)
B2: SEQ ID NO: 11 (ssRNA)
RNA: GCGCAAUGGUGAGUGGUUUAUCCGCCUGCGC
modifications: 3' idT; 2'-OMe at 1-10,12,15,16,19,24,26-31; 2'-F at U14,U17,U18,U21,C22,C23,C25; 2'-OH at G11,G13,A20
B3: SEQ ID NO: 11-1 (ssRNA)
RNA: B2 RNA
modifications: 3' idT; 2'-OMe at 1-10,12,15,16,19,23-31; 2'-F at U14,U17,U18,U21,C22; 2'-OH at G11,G13,A20
B4: SEQ ID NO: 1 (ssRNA)
RNA: GGGAGAGGAGAAGAGGAAGCUAUCGCAAUGGUGAGUGGUUUAUCCGCCUGCGCAUGGUUAGAGGACAGGAAUGAGGA
modifications: 2'-F pyrimidines; 16-nt poly A at 3' end for SPR
B5: SEQ ID NO: 8-2 (ssRNA)
RNA: GUCUGUGUGGUUUAUCCGGAC
modifications: 5' 80PEG4ts; 3' idT; 2'-OMe at G1,G9,G10,U13,G18,G19,A20; 2'-F at other pyrimidines except C21 (unmodified as printed); 2'-OH at G5,G7,A14
B6: SEQ ID NO: 8-5 (ssRNA)
RNA: GUCUGUGUGGUUUAUCCGGAC
modifications: 5' 80PEG4gs; 3' idT; 2'-OMe at 1-3,8-10,13,18-21; 2'-F at U4,U6,U11,U12,U15,C16,C17; 2'-OH at G5,G7,A14
B7: SEQ ID NO: 8-3 (ssRNA)
RNA: GUCUGUGUGGUUUAUCCGGAC
modifications: 5' 80PEG4gs; 3' idT; 2'-OMe at G1,G9,G10,U13,G18,G19,A20; 2'-F at other pyrimidines except C21 (unmodified as printed); 2'-OH at G5,G7,A14
B8: SEQ ID NO: 8-4 (ssRNA)
RNA: GUCUGUGUGGUUUAUCCGGAC
modifications: 5' 80PEG4ts; 3' idT; 2'-OMe at 1-3,8-10,13,18-21; 2'-F at U4,U6,U11,U12,U15,C16,C17; 2'-OH at G5,G7,A14
B9: SEQ ID NO: 8-1 (ssRNA)
RNA: GUCUGUGUGGUUUAUCCGGAC
modifications: 2'-OMe at G1,G9,G10,U13,G18,G19,A20; 2'-F at all other pyrimidines; 2'-OH at G5,G7,A14
B10: SEQ ID NO: 2 (ssRNA)
RNA: GGGACACAAUGGACGUCUGUGUGGUUUAUCCGGAUGUCCGUCGUCCUCUGUCAUGUAACGGCCGACAUGAGAG
modifications: 2'-F pyrimidines; 16-nt poly A at 3' end for SPR
B11: SEQ ID NO: 4 (ssRNA)
RNA: B10 RNA with U51C
modifications: 2'-F pyrimidines; 16-nt poly A at 3' end for SPR
B12: SEQ ID NO: 5 (ssRNA)
RNA: B10 RNA with U49G
modifications: 2'-F pyrimidines; 16-nt poly A at 3' end for SPR
B13: SEQ ID NO: 6 (ssRNA)
RNA: B10 RNA with U35C, A53G
modifications: 2'-F pyrimidines; 16-nt poly A at 3' end for SPR
B14: SEQ ID NO: 3 (ssRNA)
RNA: B10 RNA with A53G
modifications: 2'-F pyrimidines; 16-nt poly A at 3' end for SPR

Target: T1, midkine (AP-MK)
Assay: inhibition; AP-MK binding to HepG2 cells
Details: tags: alkaline phosphatase fusion, APtag-5 vector (GenHunter), 293T culture supernatant
Experimental: (§1) Using the above-mentioned AP-MK, a binding inhibitory experiment relative to TNB1 cell, which is a human neuroblastoma cell, was performed. TNB1 cells were seeded at 1×10⁵ cells/well on a 6-well plate coated with collagen I. The next day, the cells were washed with 1 mL of HBHA (HBSS+0.5 mg/mL BSA+20 mM HEPES pH 7.0), 1 U/mL AP or AP-MK, and further, the aptamer shown in SEQ ID NO: 7-1 at a final concentration of 100 nM were added and the mixture was maintained at room temperature for 90 min. After washing 5 times with 1 mL of HBHA, 200 μL of Cell Lysis Buffer (manufactured by GenHunter) was added and the mixture was stirred for 5 min. The cells were scraped with a Scraper and placed in an Eppendorf tube, vortexed for 10 sec and centrifuged at 15000 rpm for 2 min. The supernatant was recovered, and heated at 65° C. for 10 min to inactivate endogenous AP. Using 50 μL, color development was performed in the same manner as above (15 min) and the activity of AP was calculated.
An altered form of SEQ ID NO: 7-1 was produced, and AP-MK binding inhibitory experiment was performed using HepG2 and TNB1 cells and in the same manner as above. The sequences of the altered forms actually produced are shown below. While Poly dA for BIAcore measurement is added to the 3′-terminus of the aptamers shown in SEQ ID NO: 9 and SEQ ID NO: 9-1-5, an influence on the activity is not expected. The 50% inhibitory concentration (IC₅₀) was determined from the concentrations at two, above and below points sandwiching the 50% inhibitory activity (Table 2).
With B1 the IC50 was 13 nM. With B2 the IC50 was 6.3 nM. Binder B3 has an IC50 of 7.8 nM.

The binders below were run against T2, midkine (MK) (assay: SPR; strongly binds; 0.5 uM MK analyte; solution A (Na, K, Ca, Mg, Tris pH 7.6)). Details: tags: produced in yeast.
Experimental: (§2) The binding activities of the oligonucleotides shown by SEQ ID NO:1 to 6 obtained in Examples 1 and 2 for MK were evaluated by a surface plasmon resonance method. The measurements were performed using BIAcore2000, manufactured by BIAcore. The sensor chip used was the SA chip, which had streptavidin immobilized thereon. Bound thereto was about 1000 RU of a 16-nucleotide Poly dT with biotin bound to the 5′ end thereof. […] 70 μL of MK for analyte, prepared at 0.5 μM, was injected.
B4: binds.

Target: T1, midkine (AP-MK)
Assay: inhibition; AP-MK binding to HepG2, 500 nM aptamer
Details: tags: alkaline phosphatase fusion, APtag-5 vector (GenHunter), 293T culture supernatant
Experimental: as §1
An experiment similar to the above was performed using HepG2 cells which are human liver cancer-derived cells. It is already known that MK is deeply involved in the growth and inhibition of apoptosis of HepG2 cells (Ohuchida et al., Cancer 100, 2430-2436, 2004; Dai et al., World J. Gastroenterol. 15, 1966-1972, 2009). When the aptamer was added to the system, the binding of AP-MK and HepG2 was inhibited (Table 1).
B5 gave an activity of 61 % inhibition. B6 gave an activity of 61 % inhibition. In the case of B7, the activity is reported as 65 % inhibition. In the case of B8, the activity is reported as 58 % inhibition. B9 was tested, and the activity was 76 % inhibition.

Each binder was assayed against T2, midkine (MK) (assay: SPR; strongly binds; 0.5 uM MK analyte; solution A). Details: tags: produced in yeast.
Experimental: as §2
B10: binds. B11: binds. B12: binds. B13: binds. B14: binds.

Each binder was assayed against T2, midkine (MK) (assay: SPR; confirmed MK binding, as in Example 3). Details: tags: produced in yeast.
Experimental: as §2
Those aptamers were evaluated by the surface plasmon resonance method in the same manner as in Example 3, and they were confirmed to have MK binding activity.
B5: binds. B6: binds. GCCAUCGCAAUGGUGAGUGGUUUAUCCGCCUGCGCAUGGC (ssRNA, 2'-F pyrimidines) [SEQ ID NO: 7]: binds. B7: binds. GUCUGUGUGGUUUAUCCGGAC (ssRNA, 2'-F pyrimidines) [SEQ ID NO: 8]: binds. B8: binds. B9: binds.

From patent publication US20150353933, “APTAMER AGAINST MIDKINE AND APPLICATIONS THEREOF” (RIBOMIC INC., published 2015)
